Measured values published in US20120220489A1.

What was measured:
[1] = biological target: Erk1-BSA 2.7x peptide-protein conjugate (human; bovine); assay: RPA, competition: +recombinant protein 10 nM (not named)
[2] = biological target: pRb recombinant protein, human, Active Motif 31 128 (human) (UniProt P06400); assay: as above
[3] = biological target: ERK2 (p42), human, Biosource PHO 0104 (human) (UniProt P28482); assay: as above
[4] = biological target: ERK1 (p44) active (GST tagged), human, Invitrogen PV 3311 (human) (UniProt P27361); assay: as above
[5] = biological target: pRb-BSA 1x peptide-protein conjugate (bovine); assay: as above
pRb-BSA 1x peptide-protein conjugate (bovine), sequence (P02769 25-607 limits assumed): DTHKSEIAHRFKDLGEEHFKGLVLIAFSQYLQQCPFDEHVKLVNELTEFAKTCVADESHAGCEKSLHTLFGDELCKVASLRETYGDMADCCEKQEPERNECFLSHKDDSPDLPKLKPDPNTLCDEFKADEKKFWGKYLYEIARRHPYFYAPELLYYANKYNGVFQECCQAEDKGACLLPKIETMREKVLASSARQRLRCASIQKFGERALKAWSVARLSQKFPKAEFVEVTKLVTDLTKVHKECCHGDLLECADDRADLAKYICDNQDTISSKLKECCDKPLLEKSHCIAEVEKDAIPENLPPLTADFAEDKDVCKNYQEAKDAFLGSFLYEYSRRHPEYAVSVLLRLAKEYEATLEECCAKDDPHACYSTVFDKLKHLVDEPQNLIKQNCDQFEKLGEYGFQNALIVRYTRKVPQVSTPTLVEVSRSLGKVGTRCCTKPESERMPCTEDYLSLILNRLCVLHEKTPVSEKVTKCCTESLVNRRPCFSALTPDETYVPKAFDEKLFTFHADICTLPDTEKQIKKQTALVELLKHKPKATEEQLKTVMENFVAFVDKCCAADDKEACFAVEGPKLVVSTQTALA

[6] = biological target: ERK1 (p44), human, Cell Signaling Technology 7416 (human) (UniProt P27361); assay: as above
[7] = biological target: ERK1 (p44) inactive (GST tagged), human, Invitrogen PV 3312 (human) (UniProt P27361); assay: as above
[8] = biological target: Histone H3 recombinant protein, calf, Roche 11 034 758 001 (calf) (UniProt P68432); assay: as above
[9] = biological target: Histone H3-BSA 2.7x peptide-protein conjugate (bovine); assay: as above
Histone H3-BSA 2.7x peptide-protein conjugate (bovine), sequence (P02769 25-607 limits assumed): as above

[10] = biological target: Histone H3 recombinant protein, human, Upstate 14-494 (human) (UniProt P68431); assay: as above
[11] = biological target: ERK1 (p42) active (phospho), human, Active Motif 31 152 (human) (UniProt P27361); assay: as above
[12] = biological target: pErk1/2-BSA 2.7x peptide-protein conjugate (human; bovine); assay: as above
pErk1/2-BSA 2.7x peptide-protein conjugate (human; bovine), sequence (P02769 25-607 limits assumed): as above

[13] = biological target: Erk1-BSA 2.7x peptide-protein conjugate (human; bovine); assay: RPA, competition: +recombinant protein 100 nM (not named)
[14] = biological target: pRb recombinant protein, human, Active Motif 31 128 (human) (UniProt P06400); assay: as above
[15] = biological target: ERK2 (p42), human, Biosource PHO 0104 (human) (UniProt P28482); assay: as above
[16] = biological target: ERK1 (p44) active (GST tagged), human, Invitrogen PV 3311 (human) (UniProt P27361); assay: as above
[17] = biological target: pRb-BSA 1x peptide-protein conjugate (bovine); assay: as above
[18] = biological target: ERK1 (p44), human, Cell Signaling Technology 7416 (human) (UniProt P27361); assay: as above
[19] = biological target: ERK1 (p44) inactive (GST tagged), human, Invitrogen PV 3312 (human) (UniProt P27361); assay: as above
[20] = biological target: Histone H3 recombinant protein, calf, Roche 11 034 758 001 (calf) (UniProt P68432); assay: as above
[21] = biological target: Histone H3-BSA 2.7x peptide-protein conjugate (bovine); assay: as above
[22] = biological target: Histone H3 recombinant protein, human, Upstate 14-494 (human) (UniProt P68431); assay: as above
[23] = biological target: ERK1 (p42) active (phospho), human, Active Motif 31 152 (human) (UniProt P27361); assay: as above
[24] = biological target: pErk1/2-BSA 2.7x peptide-protein conjugate (human; bovine); assay: as above
[25] = biological target: Erk1-BSA 2.7x peptide-protein conjugate (human; bovine); assay: RPA, normal assay
[26] = biological target: ERK1 (p44) inactive (GST tagged), human, Invitrogen PV 3312 (human) (UniProt P27361); assay: RPA, normal assay
[27] = biological target: Histone H3 recombinant protein, calf, Roche 11 034 758 001 (calf) (UniProt P68432); assay: RPA, normal assay
[28] = biological target: Histone H3-BSA 2.7x peptide-protein conjugate (bovine); assay: RPA, normal assay
[29] = biological target: Histone H3 recombinant protein, human, Upstate 14-494 (human) (UniProt P68431); assay: RPA, normal assay
[30] = biological target: ERK1 (p44) active (GST tagged), human, Invitrogen PV 3311 (human) (UniProt P27361); assay: RPA standard curves, mean of duplicate assays
[31] = biological target: ERK1 (p44) active (GST tagged), human, Invitrogen PV 3311 (human) (UniProt P27361); assay: RPA standard curve, assay 1, LOD back-calculated from one-site fit
[32] = biological target: ERK1 (p44) active (GST tagged), human, Invitrogen PV 3311 (human) (UniProt P27361); assay: RPA standard curve, assay 2, LOD back-calculated from one-site fit
[33] = biological target: pRb recombinant protein, human, Active Motif 31 128 (human) (UniProt P06400); assay: RPA, normal assay
[34] = biological target: ERK2 (p42), human, Biosource PHO 0104 (human) (UniProt P28482); assay: RPA, normal assay
[35] = biological target: ERK1 (p44) active (GST tagged), human, Invitrogen PV 3311 (human) (UniProt P27361); assay: RPA, normal assay
[36] = biological target: pRb-BSA 1x peptide-protein conjugate (bovine); assay: RPA, normal assay
[37] = biological target: ERK1 (p44), human, Cell Signaling Technology 7416 (human) (UniProt P27361); assay: RPA, normal assay
[38] = biological target: ERK1 (p42) active (phospho), human, Active Motif 31 152 (human) (UniProt P27361); assay: RPA, normal assay

UniProt P28482, sequence (P28482 2-360 limits assumed): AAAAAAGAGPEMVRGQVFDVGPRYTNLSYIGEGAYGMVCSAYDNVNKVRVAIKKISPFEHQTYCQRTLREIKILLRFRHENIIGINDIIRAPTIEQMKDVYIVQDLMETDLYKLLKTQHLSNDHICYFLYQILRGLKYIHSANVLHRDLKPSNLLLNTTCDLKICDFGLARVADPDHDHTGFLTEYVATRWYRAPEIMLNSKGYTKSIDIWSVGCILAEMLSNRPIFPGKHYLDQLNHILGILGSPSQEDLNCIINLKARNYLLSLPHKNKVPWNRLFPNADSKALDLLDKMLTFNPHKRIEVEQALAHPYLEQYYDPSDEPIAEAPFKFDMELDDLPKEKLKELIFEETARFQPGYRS
Erk1-BSA 2.7x peptide-protein conjugate (human; bovine), sequence (peptide, as listed by the source limits assumed, chain 1 of 2): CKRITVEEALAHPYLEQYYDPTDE
Erk1-BSA 2.7x peptide-protein conjugate (human; bovine), sequence (P02769 25-607 limits assumed, chain 2 of 2): as the sequence (P02769 25-607 limits assumed) above
UniProt P06400, sequence (P06400 whole entry): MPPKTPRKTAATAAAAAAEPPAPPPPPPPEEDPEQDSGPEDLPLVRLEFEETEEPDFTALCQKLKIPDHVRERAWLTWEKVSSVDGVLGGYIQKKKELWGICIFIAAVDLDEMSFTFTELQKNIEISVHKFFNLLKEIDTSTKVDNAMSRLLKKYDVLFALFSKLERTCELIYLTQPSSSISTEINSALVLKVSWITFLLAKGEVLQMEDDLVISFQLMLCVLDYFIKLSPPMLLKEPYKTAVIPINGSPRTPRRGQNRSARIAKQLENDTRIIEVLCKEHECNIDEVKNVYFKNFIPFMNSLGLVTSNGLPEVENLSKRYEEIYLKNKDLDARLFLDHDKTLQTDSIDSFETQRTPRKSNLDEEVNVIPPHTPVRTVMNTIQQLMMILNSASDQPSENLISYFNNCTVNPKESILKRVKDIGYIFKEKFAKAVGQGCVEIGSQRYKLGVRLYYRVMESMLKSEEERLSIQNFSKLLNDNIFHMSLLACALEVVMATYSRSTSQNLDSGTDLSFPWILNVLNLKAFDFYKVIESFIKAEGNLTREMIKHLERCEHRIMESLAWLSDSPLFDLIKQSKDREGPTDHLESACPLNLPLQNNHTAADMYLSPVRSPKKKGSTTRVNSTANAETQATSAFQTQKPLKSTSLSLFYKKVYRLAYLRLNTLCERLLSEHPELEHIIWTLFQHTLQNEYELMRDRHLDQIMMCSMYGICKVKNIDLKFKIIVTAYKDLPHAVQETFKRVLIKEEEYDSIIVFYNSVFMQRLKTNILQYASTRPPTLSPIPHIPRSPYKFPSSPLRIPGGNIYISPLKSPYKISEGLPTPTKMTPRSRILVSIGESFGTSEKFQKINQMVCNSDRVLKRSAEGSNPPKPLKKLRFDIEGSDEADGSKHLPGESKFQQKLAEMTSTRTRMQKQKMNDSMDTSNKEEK

Substance | maximum standard curve signal [1] [RFI] | maximum standard curve signal [2] [RFI] | maximum standard curve signal [3] [RFI] | maximum standard curve signal [4] [RFI] | maximum standard curve signal [5] [RFI] | maximum standard curve signal [6] [RFI] | maximum standard curve signal [7] [RFI] | maximum standard curve signal [8] [RFI] | maximum standard curve signal [9] [RFI] | maximum standard curve signal [10] [RFI] | maximum standard curve signal [11] [RFI] | maximum standard curve signal [12] [RFI] | maximum standard curve signal [13] [RFI] | maximum standard curve signal [14] [RFI] | maximum standard curve signal [15] [RFI] | maximum standard curve signal [16] [RFI] | maximum standard curve signal [25] [RFI] | maximum standard curve signal [26] [RFI] | maximum standard curve signal [27] [RFI] | maximum standard curve signal [28] [RFI] | also measured
Histone H3 antibody, Abcam ab1791 | 2.8 | 2.77 | 2.3 | 2.2 | 2.57 | 2.19 | 2.54 | 2.5 | 3.93 | 3.16 | 2.4 | 2.57 | 1.42 | 2.28 | 1.56 | 1.37 | 0.01 | 0.02 | 0.43 | 5.38 | maximum standard curve signal [17]: 2.46 RFI; maximum standard curve signal [18]: 1.8 RFI; maximum standard curve signal [19]: 1.32 RFI; maximum standard curve signal [20]: 2.56 RFI; maximum standard curve signal [21]: 1.68 RFI; maximum standard curve signal [22]: 2.09 RFI; maximum standard curve signal [23]: 1.87 RFI; maximum standard curve signal [24]: 1.81 RFI; maximum standard curve signal [29]: 11.2 RFI
p44/42 MAPK (Erk1/2) antibody, Biosource 44-654G | 7.88 | 0.11 | 0.9 | 3.88 | 0.1 | 0.15 | 5.17 | 0.07 | 0.13 | 0.09 | 0.31 | 0.08 | 5.69 | 0.17 | 0.18 | 0.32 | 8.24 | 10.9 | 0.02 | 0.04 | maximum standard curve signal [17]: 0.16 RFI; maximum standard curve signal [18]: 0.16 RFI; maximum standard curve signal [19]: 0.38 RFI; maximum standard curve signal [20]: 0.15 RFI; maximum standard curve signal [21]: 0.22 RFI; maximum standard curve signal [22]: 0.16 RFI; maximum standard curve signal [23]: 0.15 RFI; maximum standard curve signal [24]: 0.14 RFI; mean LOD [30]: 0.044 nM; LOD [31]: 0.04 nM; LOD [32]: 0.047 nM; maximum standard curve signal [33]: 0.02 RFI; maximum standard curve signal [34]: 3.57 RFI; maximum standard curve signal [35]: 10.4 RFI; maximum standard curve signal [36]: 0.03 RFI; maximum standard curve signal [37]: 0.28 RFI; maximum standard curve signal [38]: 1.17 RFI
p44/42 MAPK phospho (pERK1/2) Thr202/Tyr204 antibody, Cell Signaling Technology #9101 |  |  |  |  |  |  |  |  |  |  |  |  |  |  |  |  | 0.02 | 0.23 | 0.01 | 0.11 | mean LOD [30]: 0.055 nM; LOD [31]: 0.058 nM; LOD [32]: 0.052 nM; maximum standard curve signal [33]: 0.01 RFI; maximum standard curve signal [34]: 0.01 RFI; maximum standard curve signal [35]: 1.66 RFI; maximum standard curve signal [36]: 0.01 RFI; maximum standard curve signal [37]: 0.04 RFI; maximum standard curve signal [29]: 0.01 RFI; maximum standard curve signal [38]: 0.19 RFI
